Source: the domain aggregation screens of Martell et al. (2025)

Experiment: soluble fraction after stress (log2 fold change); higher = more stays soluble; pooled small domains, quantitative proteomics
Conditions: stress: pH 4
Outline: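 Custom libraries of small protein domains were pooled and exposed to pH 4. High-throughput quantitative proteomics then measured the log2 fold change in the amount of each domain still soluble, with higher values meaning more stayed soluble. This soluble-fraction fold change stands for aggregation propensity.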

Q: With “HMSISSSEAARSAVASSGGTVLGVSKASHGGYKAWAVRIQRADGSVVTGYVDRASGTVYDWVVNQAA” as the sequence, how does the “soluble fraction (log2)” value read?
A: 0.379

Q: With “HMSKEDDSLVVTFRRMLLEEVDLHELSRIDANQRRARLERVIAHLVSREGVILSASERNQLVRRVVDEAV” as the sequence, how does the “soluble fraction (log2)” value read?
A: -0.801

Q: Which “soluble fraction (log2)” value does the source give for “HMSKEEAIQAMKEGKKVTHRFFSSDEWMTIENGFLLLEDGVRISLEDFFNFRSDSLWDNGYELYNPH” here?
A: -0.768

Q: For “HMSKFSDTLVYLRKRAGFSQQELADKMEVSRSLVGMYESGQRMPSYEMLEALADIFNVNIDFLTGH”, which “soluble fraction (log2)” value is on record?
A: -0.586

Q: With “HMSKIRSEINKFSSDADKPILEWLFERYHWASQWRFVARFSEQRYGVLSYEINRVWEPTIEGRALYDQL” as the sequence, how does the “soluble fraction (log2)” value read?
A: -1.45

Q: Which “soluble fraction (log2)” value does the source give for “HMSKKMLASIFDTISGIGKKRLKKIWDNYTSLNELKDDSLENIYAKTQIPINLITKIKEKLE” here?
A: ≥ 0.43

Q: Which “soluble fraction (log2)” value does the source give for “HMSKKMTNEEILNFLKKVLIKHGKISGFIIDEDDNGPSSSVVASRFGGLLNAYKLINYTPER” here?
A: ≥ 0.43

Q: With “HMSKMTLGENLRLLRREKGLSQEQVAQTLFVARQTISKWENGQAEPGVESLKALAKLYGVSLDRLVGA” as the sequence, how does the “soluble fraction (log2)” value read?
A: -0.324

Q: With “HMSKPLEVFKLTSEPFGFSFNTALGRSYTVEATGDLGVWKAVELFQGSGGEIRFTAKPTSSGGAQFFRVFV” as the sequence, how does the “soluble fraction (log2)” value read?
A: -0.225

Q: Which “soluble fraction (log2)” value does the source give for “HMSKPVYILINKPKGFLASSTDKKVKKSVNDLINISNLNKIYPFDNMGRTSSGLLLLSNDLYFKKHFKDKI” here?
A: 0.209

Q: Which “soluble fraction (log2)” value does the source give for “HMSKQKRIKYFLSILNIKSIKQFRKKDLDYFYQKRFIEIQKSSKDKKLVSNQLIELNAAKEYLDEIDFEN” here?
A: 0.295

Q: Which “soluble fraction (log2)” value does the source give for “HMSKQQVRSILDDIPNIGETRRKALMRQFQSLEKIREASVGQLREVDGMNEKAAQSVYQFFHK” here?
A: 0.108

Q: For “HMSKQVDVVIYILENTKAADNTYIGTYRKTADGAGVSLDTATKVMRKLQENNFIKKVQNGVYQISPLIMM”, which “soluble fraction (log2)” value is on record?
A: -0.519

Q: Which “soluble fraction (log2)” value does the source give for “HMSKRDDLLDQASEWLAKLDRDLTVVEERELKAWLGESAAHRETFIQMAKLWDKMESLSRLTDL” here?
A: -1.06

Q: For “HMSKSVEQRRQQIVAWVKEHGQSQVEDLAVRFATSEVTIRKDLAALSQQGLLIRQFGGAVPVPA”, which “soluble fraction (log2)” value is on record?
A: 0.119

Q: Which “soluble fraction (log2)” value does the source give for “HMSKTQYTFKEVGSQFQLFAPSTKHTIMISADHPKYGWLTNQDQGRVINVYDTGKMTSSQDYYGLYKEVT” here?
A: -0.589

Q: Which “soluble fraction (log2)” value does the source give for “HMSKTQYTFREVGSQFELHAPSTNHKIMVDANHPKYGWLSSQEAGRVINVYESGKMTSSQDYYGLYKQS” here?
A: -0.427

Q: Which “soluble fraction (log2)” value does the source give for “HMSLANTSVKEMLNDLVKNEEPSKPLSDEALVKIFKEKGVKIARRTVAKYRAELNILPSHLRRT” here?
A: -0.116

Q: With “HMSLAVFLQGLLEEKQLKKADVIRRTGMEPTYGYHIFDGHKKHPARSKVLLLALAMGLTVKEAQHLLYYAG” as the sequence, how does the “soluble fraction (log2)” value read?
A: -0.544

Q: Which “soluble fraction (log2)” value does the source give for “HMSLDAAAVASKLIKRLSKSPGRRFALDDLAVDVGLPHEQGRPLVRSALELLVRTQQAVEGPPNVFRLFF” here?
A: -0.17

Q: For “HMSLEDMILSLSSRIRRGESLHFRELLVAIETKSGMVTIFMAVLELLKQQVMEMRYEDDDIIFT”, which “soluble fraction (log2)” value is on record?
A: -0.567

Q: For “HMSLEEIPLEERLGPGGLDPVAVYDSLPREMRDAFDSGSVSALREFVNALPAEDAARHMKAMVDSGLWVPT”, which “soluble fraction (log2)” value is on record?
A: -0.794

Q: Which “soluble fraction (log2)” value does the source give for “HMSLETRRYQLPRTDAQTASGLLRSLSGLPGVREVNLSGEGVAYLKVDSKGFDEQNVIKLLAGE” here?
A: -0.0727

Q: Which “soluble fraction (log2)” value does the source give for “HMSLHSITIPQEFIGAVIGPGGKVIQEIQKQTGTTITITEKDNKGYVDIFGEDKGALDSALARIKEIVAIP” here?
A: -0.277

Q: For “HMSLIDYLNELMNEKNITVAQVAKNSGIGEYVYKIFNGERNAKRDTLVAISFGMHLNFEETQLLLRIA”, which “soluble fraction (log2)” value is on record?
A: -0.98

Q: For “HMSLPALALRQADSLAFKQVIYHDRVVPFNTLARDFVLKLTGKPSYGGMTPEQVVGGWLLRPEVWQNEPM”, which “soluble fraction (log2)” value is on record?
A: 0.00403

Q: With “HMSLPAYIKISEVIARRINAGQILAGDRLPNERTMAVEFGVAVGTLRKALYHLQVRGLVTRKHGSGNYINK” as the sequence, how does the “soluble fraction (log2)” value read?
A: 0.249

Q: Which “soluble fraction (log2)” value does the source give for “HMSLPKIVVPTDVTVSQLAKYLEVDAISIIKQLFGMGVVASLNQRLEDEIIQLIGNEFGKEIIFSE” here?
A: -0.107

Q: Which “soluble fraction (log2)” value does the source give for “HMSLPQSKDAVITILRTLPQLDTRAPEVYKLLGPHALDIILEDPEQVAKKINHVGVATAKLWQQALLGFK” here?
A: 0.198

Q: Which “soluble fraction (log2)” value does the source give for “HMSLQDYYQVLGVFYNAGDKEIKRRWKELINQYHPDLAQAKGASPEEIENYTLKMAEINNAYEQIMKSRKA” here?
A: 0.0253

Q: Which “soluble fraction (log2)” value does the source give for “HMSLSASELDQLRMMTKVSHMYHTRGMVQIDIARSLGLSQARVSRLLSAAEDANIVRTVVVA” here?
A: -0.177

Q: Which “soluble fraction (log2)” value does the source give for “HMSLTAQVFTDRGKVLLSENKFTEAIDQFTKALAMDKVYIEALNRRIEAYQHLGLTELAAKDEALLGTL” here?
A: -1.01

Q: With “HMSLTPSQDANRSAILDAARDLFARYGFKKTTMEDIAMALRKGKSSLYYYFKNKEDIFQAVIDS” as the sequence, how does the “soluble fraction (log2)” value read?
A: -0.0869

Q: With “HMSMDAVSLANRLLRFFQKRPGRKFTAADLAFETGMNERTGKSLVTSALEILSRTNQIEADGDGFRLKM” as the sequence, how does the “soluble fraction (log2)” value read?
A: 0.243

Q: Which “soluble fraction (log2)” value does the source give for “HMSMEIQEIIRQLREKNDWSQEDMAERVGLSKNGYAKIERGETNLNLERLEQIANLFDLSVIDLIEMS” here?
A: -1.03

Q: Which “soluble fraction (log2)” value does the source give for “HMSMEKNWVPSEDVIEILTRAGMNENFIRELIPEFIIYWSERKDVLISYDSKFIEHARLKWAQHNAE” here?
A: 0.0608

Q: Which “soluble fraction (log2)” value does the source give for “HMSMFTPAQVAQTLTVPPSTLRRWAKRFAPFLSPQSGKKRTYTVADLDTFQRIKELSAQGYTFAQIDQAL” here?
A: -0.101

Q: Which “soluble fraction (log2)” value does the source give for “HMSMLSQERQSLILDIIKEQGSVTVTRLTEILQSSESTVRRDLSYLASKGKINKVHGGATALG” here?
A: -0.306

Q: For “HMSMNGNMIHATVIWKGRYFLVKMFFPQLTKPKRAEVQAQIEKAYPGSRVASYHITDYKPGEQFLHV”, which “soluble fraction (log2)” value is on record?
A: -0.156

Q: For “HMSMPEVLSDRELEIFRMIGTGMSTGDIAKKLNISVNTIESHRKKIKDKLGIQKGSELVKAAVQWVSTQQ”, which “soluble fraction (log2)” value is on record?
A: -0.219

Q: For “HMSMSVLFSELDQKDAGVIVEKLKERKIPYELQSGGSAIMVPANVLHETRLQLAAEGLPQSS”, which “soluble fraction (log2)” value is on record?
A: 0.0876

Q: With “HMSMTVHGALRLLQLPTIADRPYTLKEIREAYREQAQNHHPDAGGSADAMRRLNEAYQFLKERYRQA” as the sequence, how does the “soluble fraction (log2)” value read?
A: -0.0331

Q: Which “soluble fraction (log2)” value does the source give for “HMSNEKVVKFAQELLVDEERSAISPALISAKIDQVLMFKPAWNEGLDRDAVVNELVRRFSIW” here?
A: -1.19

Q: With “HMSNGFFELKTSQQDELIDLIDSHTNFVRTKIEGELITAFLKLPMDAEEFNKLLFTNGIILSHLVKRK” as the sequence, how does the “soluble fraction (log2)” value read?
A: -1.07

Q: Which “soluble fraction (log2)” value does the source give for “HMSNIIGNTAYSAIPDKQYFRLKSETAEKVANYLTENNIPFSGRINGDKTTLTIGQKNVDDYKAAVATVTG” here?
A: 0.304

Q: Which “soluble fraction (log2)” value does the source give for “HMSNIVNYEVYVYQNDAWDLLARYPSEKRAEAIEYAKSTEFSLNRPTKVIRETYDLDTQKFQEALIYLSE” here?
A: -0.304

Q: For “HMSNLNHSFQYKKNIGRKISLTYLGRDNESISKIYELIDSNDSGILVKNKNVEIFIHYEKIVSAKIKVS”, which “soluble fraction (log2)” value is on record?
A: -0.213

Q: For “HMSNLTDLVSAKEAEVYLHFLESGSTAGMTEAELRAVRKIEELIQSNKIDYNGILRIRNETVK”, which “soluble fraction (log2)” value is on record?
A: -0.137

Q: Which “soluble fraction (log2)” value does the source give for “HMSNNLAYSQFLDRVKNKEIRKVEIRGQSIVGYTSNNETFKTYAPLNDPKMYDELLTNDVQVQVDPP” here?
A: 0.0357

Q: Which “soluble fraction (log2)” value does the source give for “HMSNQLAVPDVTNMKANAAADRLRQQGLRVELKTESSNTVPRGMAIRTDPAASTMVARGGRVTLIISSGKG” here?
A: -0.0724

Q: With “HMSNSGFVKNNGKTEFYDASGRQAKSSWINISGKWYYFDLNGTMVTGWQRISNKWYYFLEDGSK” as the sequence, how does the “soluble fraction (log2)” value read?
A: 0.342

Q: For “HMSNSMISKDKAMSIALAKVSGATSSNIYIELEKDDGRYTYEGEINFNNKEYEFEIDAYTGNILKWEVDSI”, which “soluble fraction (log2)” value is on record?
A: -0.0257

Q: With “HMSNTPHSREVLLEMDAVRRLLAVGEEKGEVDRADLQGAFEEAELGRGDLDGVLSILREYDVPLAR” as the sequence, how does the “soluble fraction (log2)” value read?
A: -0.15

Q: Which “soluble fraction (log2)” value does the source give for “HMSNVIYFNYNDYKFLFMGDAGVDKETDILEKYTLSNIDFLKVGHHGSDTSSNKGFIDSIQPKYSLIS” here?
A: -1.42

Q: For “HMSNWTILIIQGSAHLIDLDSKITEIDGFGSFPTKILQDYNLNEEFEIFDTNVKMVNSVQSDLQSN”, which “soluble fraction (log2)” value is on record?
A: -1.97
